The text below walks through data of patent publication US20260176365A1 (SYNTHEKINE, published 2026).

Numbering of substitutions follows the chain as printed.

T1: mgp130 ECD antigen (mouse, UniProt Q00560 23-617)
T1 construct: Antigen of biopanning and PE-ELISA; The immunogen was an ECD-human IgG1 hinge-Fc fusion; also called ECD of mouse gp130; ngp130 ECD antigen (so in the source)
T1 sequence: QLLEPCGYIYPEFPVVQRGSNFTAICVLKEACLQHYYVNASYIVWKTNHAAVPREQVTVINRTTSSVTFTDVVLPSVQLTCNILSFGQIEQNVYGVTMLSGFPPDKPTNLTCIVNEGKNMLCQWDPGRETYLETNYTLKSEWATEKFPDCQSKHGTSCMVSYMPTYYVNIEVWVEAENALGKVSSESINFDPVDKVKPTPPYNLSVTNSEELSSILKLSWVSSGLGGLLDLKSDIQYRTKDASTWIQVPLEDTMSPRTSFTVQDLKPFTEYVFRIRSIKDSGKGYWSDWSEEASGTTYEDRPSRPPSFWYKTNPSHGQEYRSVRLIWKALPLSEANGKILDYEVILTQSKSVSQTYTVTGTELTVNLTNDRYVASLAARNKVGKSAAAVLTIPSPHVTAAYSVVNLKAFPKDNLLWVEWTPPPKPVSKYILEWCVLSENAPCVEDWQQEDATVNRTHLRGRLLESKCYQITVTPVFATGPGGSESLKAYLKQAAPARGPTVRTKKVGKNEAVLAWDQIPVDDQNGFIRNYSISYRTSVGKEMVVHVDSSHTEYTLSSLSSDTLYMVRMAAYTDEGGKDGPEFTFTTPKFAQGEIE

B1: mgp130_VHH30 (VHH)
VHH: QVQLQESGGGLVQPGGSLRLSCAASGFTFSSYAMSWVRQAPGKGLEWVSAINSGGGSTYYADSVKGRFTISRDNAKNTLYLQLNSLKTEDTAMYYCAKHVTGDYDPSLRYEYNYWSQGTQVTVSS
notes: As periplasmic extract of the phage clone; also called anti-mouse gp130 VHH; not shown: HA/His tag of the pMECS phagemid
B2: mgp130_VHH18 (VHH)
VHH: B1 VHH with L11S, P14A, G66A, E111D, S116G
notes: as for B1
B3: mgp130_VHH7 (VHH)
VHH: B1 VHH with G16E, G56A, S57G, A61T, E111G, Y114V
notes: as for B1
B4: mgp130_VHH10 (VHH)
VHH: B1 VHH with A23T, S30R, S31N, Q82R, N84H
notes: as for B1
B5: mgp130_VHH29 (VHH)
VHH: B1 VHH with G56A, Y95C, Y114C, S116G, Q117P
notes: as for B1
B6: mgp130_VHH12 (VHH)
VHH: B1 VHH with Y95C, E111G, Y114C, S116G, Q117P
notes: as for B1
B7: mgp130_VHH4 (VHH)
VHH: B1 VHH with G56A, S57G, A61T, Y110H, E111G, Y114V
notes: as for B1
B8: mgp130_VHH20 (VHH)
VHH: B1 VHH with M34V, A50T, A97T, Y114V
notes: as for B1
B9: mgp130_VHH17 (VHH)
VHH: B1 VHH with S30R, S31N, N113A
notes: as for B1
B10: mgp130_VHH33 (VHH)
VHH: B1 VHH with L79M, T101A, Y112W, N113H, Y114V, S116G
notes: as for B1
B11: mgp130_VHH16 (VHH)
VHH: B1 VHH with S30R, S31N, L83M, T88P
notes: as for B1
B12: mgp130_VHH42 (VHH)
VHH: B1 VHH with E111G, Y114V
notes: as for B1
B13: mgp130_VHH46 (VHH)
VHH: B1 VHH with Y95C, V100I, Y114C, S116G
notes: as for B1
B14: mgp130_VHH34 (VHH)
VHH: B1 VHH with S30R, G66A, S116G
notes: as for B1
B15: mgp130_VHH28 (VHH)
VHH: B1 VHH with N77S, A97T
notes: as for B1
B16: mgp130_VHH35 (VHH)
VHH: B1 VHH with V100I, S116G
notes: as for B1
B17: mgp130_VHH43 (VHH)
VHH: B1 VHH with S53L, G56D, S57T, A61T, N113G
notes: as for B1
B18: mgp130_VHH11 (VHH)
VHH: B1 VHH with S30R, S31N, A97T
notes: as for B1
B19: mgp130_VHH22 (VHH)
VHH: QVQLQESGGGLVQPGGSLRLSCAVSGFTFSNYAMKWVRQAPGKGLEWVSSISGGGGATYYADSVKGRFTISRDNTKNTLYLQMNSLKTEDTAVYYCAAQNLDYRGQGTQVTVSS
notes: as for B1
B20: mgp130_VHH48 (VHH)
VHH: B19 VHH with G10A, V24A, N31Y, K76N, N77D
notes: as for B1
B21: mgp130_VHH1 (VHH)
VHH: QVQLQESGGGSVQAGGSLRLSCVISGFTYRQTFMGWFRQVLGKEREGVAAISTGGGSTVYADSVKGRFTISQDSSKNTVYLEMNGLKLEDTGMYYCAASTVITSVSINRGLYQYWGQGTQVTVSS
notes: as for B1
B22: mgp130_VHH31 (VHH)
VHH: B21 VHH with L41V, N77D, V105E, G110N
notes: as for B1
B23: mgp130_VHH47 (VHH)
VHH: B21 VHH with R30K, L41P, S57N, S106T, I107V
notes: as for B1
B24: mgp130_VHH21 (VHH)
VHH: B21 VHH with L20V, V23Q, L41P, V105P, G110N
notes: as for B1
B25: mgp130_VHH26 (VHH)
VHH: B21 VHH with T28V, R30K, L41P
notes: as for B1
B26: mgp130_VHH24 (VHH)
VHH: B21 VHH with Q31P, S52T, V59L, S99T, G110N
notes: as for B1
B27: mgp130_VHH37 (VHH)
VHH: B21 VHH with S11P, L41P, V105E
notes: as for B1
B28: mgp130_VHH15 (VHH)
VHH: B21 VHH with L41V, N77D, V105E, N108Y, G110N
notes: as for B1
B29: mgp130_VHH2 (VHH)
VHH: B21 VHH with V23A, L41V, N77D, V105E, G110N
notes: as for B1
B30: mgp130_VHH25 (VHH)
VHH: B21 VHH with R30K, L41P, S106T
notes: as for B1
B31: mgp130_VHH45 (VHH)
VHH: B21 VHH with L20V, L41P, V59I, D62N
notes: as for B1
B32: mgp130_VHH36 (VHH)
VHH: B21 VHH with L41V, T58M, N77D, V105E, G110N
notes: as for B1
B33: mgp130_VHH5 (VHH)
VHH: B21 VHH with L41V, V59I, N77D, V105E, G110N
notes: as for B1
B34: mgp130_VHH27 (VHH)
VHH: B21 VHH with L20V, L41P
notes: as for B1
B35: mgp130_VHH41 (VHH)
VHH: B21 VHH with V23G, Q31P, N77D, V105E, G110N
notes: as for B1
B36: mgp130_VHH9 (VHH)
VHH: B21 VHH with V23G, Q31P, T58S, I70V
notes: as for B1
B37: mgp130_VHH19 (VHH)
VHH: B21 VHH with V23G, Q31P, T58S, I70V, G110A
notes: as for B1
B38: mgp130_VHH49 (VHH)
VHH: B21 VHH with R30K, L41P, D73E, S106T
notes: as for B1
B39: mgp130_VHH39 (VHH)
VHH: B21 VHH with F27L, R30K, L41P, S74N, G110Y, Y114W
notes: as for B1
B40: mgp130_VHH14 (VHH)
VHH: B21 VHH with R30K, L41P
notes: as for B1
B41: mgp130_VHH32 (VHH)
VHH: B21 VHH with L20V, I24V, L41P, G110N
notes: as for B1
B42: mgp130_VHH8 (VHH)
VHH: B21 VHH with Q31P, S52T, S99T, G110N
notes: as for B1
B43: mgp130_VHH23 (VHH)
VHH: QVQLQESGGGLVQPGGSLRLSCTASGFTFNSAHMKWERQPPGKGLEWVSFITPGGASTGYADSVKGRFTISRDNAKNTLYLQMNNLKTEDTAVYYCATGGLRGQGTQVTVSS
notes: as for B1
B44: mgp130_VHH44 (VHH)
VHH: B43 VHH with M34L, P53N, N74D
notes: as for B1
B45: mgp130_VHH38 (VHH)
VHH: QVQLQESGGGSVQAGGFLRLSCAFSGYTGCMGWFRQGPGQEREGVASINDGGSLTYADSVKGRFTISKDNAKKTLDLQMNTLKPEDTAMYYCAASLSYCLNPTLRVDGYNYWGQGTQVTVSS
notes: as for B1

The assay addresses T1, mgp130 ECD antigen. Kind of assay: periplasmic extract ELISA (PE-ELISA) of phage clones. For orientation: An ELISA detects its analyte on a solid surface through an enzyme-linked reagent.
Regarding B1, the binding result is listed as “binds”. The value for B2 was “binds”; that for B3 was “binds”; that for B4 was “binds”. Under B5 stands “binds”; under B6, “binds”; under B7, “binds”.

Regarding B8, the binding result was “binds”. As for B9, the binding result is listed as “binds”.

As to B10, the binding result is “binds”. Under B11 stands “binds”; under B12, “binds”; under B13, “binds”.

Turning to B14, the binding result is reported as “binds”. Under B15 stands “binds”. As for B16, the binding result is “binds”. With B17, the binding result is “binds”. Under B18 stands “binds”; under B19, “binds”; under B20, “binds”. On to B21, for which the binding result was “binds”. On to B22, for which the binding result is “binds”. The value for B23 was “binds”; that for B24 was “binds”. On to B25, for which the binding result is listed as “binds”. Turning to B26, the binding result is reported as “binds”. Under B27 stands “binds”. The value for B28 was “binds”; that for B29 was “binds”; that for B30 was “binds”.

Turning to B31, the binding result was “binds”. Under B32 stands “binds”; under B33, “binds”; under B34, “binds”. On to B35, for which the binding result was “binds”.

Consider B36, for which the binding result was “binds”. Under B37 stands “binds”; under B38, “binds”; under B39, “binds”. On to B40, for which the binding result is “binds”. The value for B41 was “binds”; that for B42 was “binds”; that for B43 was “binds”. B44: the binding result is “binds”.

Consider B45, for which the binding result was “binds”.
